± gives the uncertainty stated by the source.

For 160 variants, abundance fitness results are on record in the Human Domainome abundance scans (Beltran et al. 2025).

B1: Chromodomain-helicase-DNA-binding protein 4, residues 365 to 417; numbered along this chain, Q14839 (parent)
chain: YETDHQDYCEVCQQGGEIILCDTCPRAYHMVCLDPDMEKAPEGKWSCPHCEKE
B2: Calcium-binding protein 2, residues 155 to 219; numbered along this chain, Q9NPB3 (parent)
chain: RELRDAFREFDTNGDGRISVGELRAALKALLGERLSQREVDEILQDVDLNGDGLVDFEEFVRMMS

One data set covers variants of B1. As to the kind of experiment: abundance fitness (aPCA) (normalised: wild type 0, dead -1); higher = more abundant; growth selection in yeast, the domain comes from the species named. Particulars: Homo sapiens.
For A40Y, the abundance fitness was -0.462 ± 0.17.
Still for that read-out and setting: to A40G belongs -0.157 ± 0.1; to A40I, 0.464 ± 0.2.
The same measure, in the same setting: to A40L belongs 0.095 ± 0.1; to A40W, -0.135 ± 0.13.
Take A40E: the abundance fitness is -0.102 ± 0.16.
Same read-out and setting: as for A40T, the figure is -0.151 ± 0.14.
Take A40K: the abundance fitness is -0.043 ± 0.2.
The same measure, in the same setting: as for A40H, the figure is 0.33 ± 0.2.
Still for that read-out and setting: to A40F belongs 0.015 ± 0.18; to A40P, -0.209 ± 0.12; to A40M, 0.043 ± 0.14.
On to A40D, for which the abundance fitness came to 0.016 ± 0.17.
Turning to A40N, the abundance fitness is -0.351 ± 0.27.
Consider A40R, for which the abundance fitness is -0.178 ± 0.12.
Same read-out and setting: to S46W belongs 0.014 ± 0.12.
Still for that read-out and setting: as for S46K, the figure is -0.65 ± 0.18; as for S46H, 0.068 ± 0.3.
As to S46A, the abundance fitness was -0.18 ± 0.11.
As to S46R, the abundance fitness was -0.137 ± 0.092.
Still for that read-out and setting: to S46F belongs 0.125 ± 0.15; to S46T, -0.07 ± 0.15; to S46L, -0.168 ± 0.1.
For the variant S46Y, the abundance fitness is -0.003 ± 0.16.
In the case of S46I, the abundance fitness was -0.489 ± 0.23.
On the same count and under the same terms, to S46G belongs -0.23 ± 0.086; to S46C, 0.031 ± 0.16; to S46N, 0.039 ± 0.17.
Regarding S46Q, the abundance fitness is 0.054 ± 0.14.
Turning to S46E, the abundance fitness was -0.039 ± 0.13.
Still for that read-out and setting: to S46P belongs -0.258 ± 0.14; to S46D, -0.168 ± 0.14; to S46M, -0.197 ± 0.15.
As to M37P, the abundance fitness came to 0.026 ± 0.11.
Still for that read-out and setting: as for M37T, the figure is -0.329 ± 0.12.
On the same count and under the same terms, as for M37W, the figure is 0.079 ± 0.12; as for M37C, 0.34 ± 0.18.
Still for that read-out and setting: as for M37F, the figure is 0.24 ± 0.15; as for M37E, -0.392 ± 0.14.
With M37K, the abundance fitness was -0.242 ± 0.24.
On the same count and under the same terms, as for M37H, the figure is -0.217 ± 0.22; as for M37N, 0.141 ± 0.23; as for M37Q, -0.103 ± 0.15.
Still for that read-out and setting: as for M37R, the figure is 0.054 ± 0.095; as for M37L, -0.059 ± 0.11; as for M37D, -0.451 ± 0.23.
Regarding M37A, the abundance fitness was -0.067 ± 0.11.
Still for that read-out and setting: as for M37S, the figure is 0.079 ± 0.12; as for M37V, 0.076 ± 0.094; as for M37I, -0.023 ± 0.19.
The same measure, in the same setting: to M37G belongs -0.199 ± 0.1; to E42F, -0.315 ± 0.22.
In the case of E42C, the abundance fitness is -0.026 ± 0.21.
As to E42S, the abundance fitness is -0.129 ± 0.13.
On to E42L, for which the abundance fitness is -0.087 ± 0.11.
On the same count and under the same terms, to E42V belongs 0.066 ± 0.11; to E42G, -0.114 ± 0.11; to E42M, -0.069 ± 0.15.
On to E42W, for which the abundance fitness was -0.49 ± 0.14.
Same read-out and setting: as for E42P, the figure is 0.052 ± 0.18; as for E42Q, -0.012 ± 0.17; as for E42Y, -0.17 ± 0.27.
For E42K, the abundance fitness stood at 0.026 ± 0.18.
The same measure, in the same setting: to E42H belongs -0.394 ± 0.21; to E42T, 0.066 ± 0.17.
Consider E42I, for which the abundance fitness is -0.261 ± 0.23.
The same measure, in the same setting: to E42D belongs -0.182 ± 0.16; to E42A, -0.178 ± 0.13.
Still for that read-out and setting: as for P48A, the figure is -0.002 ± 0.11; as for P48H, -0.057 ± 0.19; as for P48L, -0.126 ± 0.1.
For P48R, the abundance fitness came out at 0.063 ± 0.1.
Still for that read-out and setting: as for P48M, the figure is 0.07 ± 0.12; as for P48D, -0.16 ± 0.19; as for P48E, -0.151 ± 0.12.
Take P48V: the abundance fitness was -0.04 ± 0.11.
Still for that read-out and setting: to P48Q belongs -0.133 ± 0.15.
On the same count and under the same terms, as for P48I, the figure is -0.308 ± 0.27.
In the case of P48C, the abundance fitness is -0.001 ± 0.19.
In the case of P48T, the abundance fitness is -0.132 ± 0.12.
With P48W, the abundance fitness was -0.622 ± 0.14.
On the same count and under the same terms, to P48Y belongs -0.101 ± 0.16; to P48N, -0.678 ± 0.3; to P48G, -0.068 ± 0.098.
Turning to P48F, the abundance fitness was -0.165 ± 0.22.
On the same count and under the same terms, to P48K belongs -0.29 ± 0.18; to P48S, 0.058 ± 0.1; to D36P, -0.136 ± 0.13.
With D36H, the abundance fitness was 0.161 ± 0.23.
Same read-out and setting: to D36W belongs -0.37 ± 0.14; to D36F, -0.325 ± 0.19.
With D36Y, the abundance fitness was -0.657 ± 0.23.
On the same count and under the same terms, to D36I belongs -0.245 ± 0.17; to D36T, 0.078 ± 0.22.
Still for that read-out and setting: as for D36G, the figure is -0.079 ± 0.1; as for D36R, -0.055 ± 0.12.
Same read-out and setting: as for D36M, the figure is -0.185 ± 0.2.
In the case of D36V, the abundance fitness is -0.052 ± 0.11.
On the same count and under the same terms, as for D36E, the figure is 0.13 ± 0.17.
For the variant D36N, the abundance fitness came out at 0.026 ± 0.2.
As for D36S, the abundance fitness amounted to 0.202 ± 0.11.
Consider D36Q, for which the abundance fitness is -0.05 ± 0.19.
On the same count and under the same terms, as for D36K, the figure is 0.06 ± 0.18; as for D36L, -0.5 ± 0.12; as for H49T, -0.16 ± 0.14.
Consider H49P, for which the abundance fitness was -0.041 ± 0.12.
Same read-out and setting: to H49N belongs -0.381 ± 0.23; to H49V, -0.185 ± 0.099; to H49F, -0.068 ± 0.19.
Same read-out and setting: to H49Q belongs -0.141 ± 0.2.
With H49A, the abundance fitness was -0.281 ± 0.11.
Still for that read-out and setting: as for H49M, the figure is -0.354 ± 0.16; as for H49W, -0.175 ± 0.15; as for H49R, -0.044 ± 0.12.
On the same count and under the same terms, to H49C belongs 0.348 ± 0.19; to H49I, -0.109 ± 0.17.
H49Y: the abundance fitness is -0.169 ± 0.18.
On the same count and under the same terms, to H49G belongs -0.086 ± 0.1; to H49K, -0.2 ± 0.18; to H49S, -0.202 ± 0.11.
Same read-out and setting: to H49D belongs -0.241 ± 0.15.
The same measure, in the same setting: to H49E belongs -0.247 ± 0.12; to H49L, -0.213 ± 0.13.
Take E51T: the abundance fitness was -0.174 ± 0.15.
The same measure, in the same setting: to E51L belongs -0.275 ± 0.11; to E51S, -0.127 ± 0.11; to E51P, -0.007 ± 0.12.
E51M: the abundance fitness is -0.03 ± 0.15.
For the variant E51Y, the abundance fitness was -0.221 ± 0.23.
Still for that read-out and setting: as for E51G, the figure is 0.132 ± 0.091.
In the case of E51D, the abundance fitness is -0.111 ± 0.28.
Regarding E51Q, the abundance fitness is -0.371 ± 0.2.
E51I: the abundance fitness is -0.331 ± 0.22.
The same measure, in the same setting: as for E51C, the figure is -0.227 ± 0.13; as for E51W, -0.338 ± 0.11.
The same measure, in the same setting: as for E51F, the figure is -0.392 ± 0.2; as for E51N, -0.357 ± 0.48; as for K39Y, -0.077 ± 0.17.
On the same count and under the same terms, to K39C belongs -0.347 ± 0.12.
K39W: the abundance fitness is -0.172 ± 0.11.
As for K39V, the abundance fitness stood at 0.1 ± 0.11.
Take K39Q: the abundance fitness is -0.323 ± 0.18.
The same measure, in the same setting: as for K39S, the figure is -0.203 ± 0.1; as for K39E, -0.077 ± 0.13.
With K39G, the abundance fitness was found to be 0.008 ± 0.096.
Still for that read-out and setting: as for K39F, the figure is -0.472 ± 0.15; as for K39P, -0.094 ± 0.15.
As for K39N, the abundance fitness is -0.264 ± 0.23.
Take K39H: the abundance fitness was -0.237 ± 0.28.
With K39M, the abundance fitness worked out at 0.115 ± 0.16.
On to K39L, for which the abundance fitness is -0.132 ± 0.1.
On the same count and under the same terms, as for K39I, the figure is -0.125 ± 0.18; as for K39A, -0.06 ± 0.14; as for K39T, -0.217 ± 0.15.
As to K39R, the abundance fitness was -0.082 ± 0.093.

The variants in a further data set derive from B2. The description is as above. Particulars: Homo sapiens.
Take RELRDAFYEFDTNGDGRISVGELRAALKALLGERLSQREVDEILQDVDLNGDGLVDFEEFVRMMS [R8Y]: the abundance fitness is -0.153 ± 0.23.
With RELRTAFREFDTNGDGRISVGELRAALKALLGERLSQREVDEILQDVDLNGDGLVDFEEFVRMMS [D5T], the abundance fitness is 0.038 ± 0.058.
On the same count and under the same terms, as for RELRDAFREFDTNGDGRISVGELRAALKALLGERLSQREVDEILWDVDLNGDGLVDFEEFVRMMS [Q45W], the figure is -0.109 ± 0.076; as for RELRDAFREFDTNGDGRISVGCLRAALKALLGERLSQREVDEILQDVDLNGDGLVDFEEFVRMMS [E22C], -0.469 ± 0.23; as for RELRDAFREFDTNGDGRISVGELRAALKALLGERLSQREVIEILQDVDLNGDGLVDFEEFVRMMS [D41I], -0.184 ± 0.15.
